This assay concerns the target proteasomal core particle (WT) (yeast (endogenous)) (UniProt P21243). Put plainly: stimulation of CP peptidase activity (suc-LLVY-AMC) by titrated base; base titrated against 2 nM CP, preincubated 15 min at 30 °C; 5 μM suc-LLVY-AMC; initial rates fitted to a hyperbola (Michaelis–Menten); surrogate readout for base–CP interaction.

In the case of “base subcomplex purified from nas6Δ cells (WT Rpt3), P38764 1-993; P32565 1-945; O13563 1-156; P33299 1-467; P40327 1-437; P33298 1-428; P53549 1-437; P33297 1-434; Q01939 1-405”, the equilibrium dissociation constant (Kd) – broadly, the concentration at which binding is half-saturated – was 36 nM.
The value for “base subcomplex purified from nas6Δ rpt3-Δ3 cells, P38764 1-993; P32565 1-945; O13563 1-156; P33299 1-467; P40327 1-437; P33298 1-428; P53549 1-437; P33297 1-434; Q01939 1-405” was 145 nM.

Source of the values: article PMC9943895.
